Our source for the % of added radiolabeled α2M bound values is patent US20020061306A1.

This assay deals with different strains of S. pyogenes (surface of the bacteria).

B1: α2-macroglobulin (native α2M) (protein, UniProt P01023 24-1474, looked up)
chain: SVSGKPQYMVLVPSLLHTETTEKGCVLLSYLNETVTVSASLESVRGNRSLFTDLEAENDVLHCVAFAVPKSSSNEEVMFLTVQVKGPTQEFKKRTTVMVKNEDSLVFVQTDKSIYKPGQTVKFRVVSMDENFHPLNELIPLVYIQDPKGNRIAQWQSFQLEGGLKQFSFPLSSEPFQGSYKVVVQKKSGGRTEHPFTVEEFVLPKFEVQVTVPKIITILEEEMNVSVCGLYTYGKPVPGHVTVSICRKYSDASDCHGEDSQAFCEKFSGQLNSHGCFYQQVKTKVFQLKRKEYEMKLHTEAQIQEEGTVVELTGRQSSEITRTITKLSFVKVDSHFRQGIPFFGQVRLVDGKGVPIPNKVIFIRGNEANYYSNATTDEHGLVQFSINTTNVMGTSLTVRVNYKDRSPCYGYQWVSEEHEEAHHTAYLVFSPSKSFVHLEPMSHELPCGHTQTVQAHYILNGGTLLGLKKLSFYYLIMAKGGIVRTGTHGLLVKQEDMKGHFSISIPVKSDIAPVARLLIYAVLPTGDVIGDSAKYDVENCLANKVDLSFSPSQSLPASHAHLRVTAAPQSVCALRAVDQSVLLMKPDAELSASSVYNLLPEKDLTGFPGPLNDQDNEDCINRHNVYINGITYTPVSSTNEKDMYSFLEDMGLKAFTNSKIRKPKMCPQLQQYEMHGPEGLRVGFYESDVMGRGHARLVHVEEPHTETVRKYFPETWIWDLVVVNSAGVAEVGVTVPDTITEWKAGAFCLSEDAGLGISSTASLRAFQPFFVELTMPYSVIRGEAFTLKATVLNYLPKCIRVSVQLEASPAFLAVPVEKEQAPHCICANGRQTVSWAVTPKSLGNVNFTVSAEALESQELCGTEVPSVPEHGRKDTVIKPLLVEPEGLEKETTFNSLLCPSGGEVSEELSLKLPPNVVEESARASVSVLGDILGSAMQNTQNLLQMPYGCGEQNMVLFAPNIYVLDYLNETQQLTPEIKSKAIGYLNTGYQRQLNYKHYDGSYSTFGERYGRNQGNTWLTAFVLKTFAQARAYIFIDEAHITQALIWLSQRQKDNGCFRSSGSLLNNAIKGGVEDEVTLSAYITIALLEIPLTVTHPVVRNALFCLESAWKTAQEGDHGSHVYTKALLAYAFALAGNQDKRKEVLKSLNEEAVKKDNSVHWERPQKPKAPVGHFYEPQAPSAEVEMTSYVLLAYLTAQPAPTSEDLTSATNIVKWITKQQNAQGGFSSTQDTVVALHALSKYGAATFTRTGKAAQVTIQSSGTFSSKFQVDNNNRLLLQQVSLPELPGEYSMKVTGEGCVYLQTSLKYNILPEKEEFPFALGVQTLPQTCDEPKAHTSFQISLSVSYTGSRSASNMAIVDVKMVSGFIPLKPTVKMLERSNHVSRTEVSSNHVLIYLDKVSNQTLSLFFTVLQDVPVRDLKPAIVKVYDYYETDEFAIAEYNAPCSKDLGNA
B1: the % of added radiolabeled α2M bound lay in the range of 0 to 76%.
